Experimental findings from US20160116473A1 (KOREA INSTITUTE OF RADIOLOGICAL AND MEDICAL SCIENCES, published 2016) are described below.

This assay addresses T1, Signal transducer and activator of transcription 3 (STAT3) (human, UniProt P40763 2-770).
T1 construct: Endogenous protein in cell lysates (co-immunoprecipitation) or in fixed cells and tissues (PLA)
Kind of assay: co-immunoprecipitation from Hep-2 and RR-Hep-2 cell lysates, immunoblot. As to the method:
Cells were lysed with nonyl phenoxypolyethoxylethanol-40 (NP-40), and the lysates were then precipitated with a negative control mouse antibody (Santa Cruz Biotechnology Inc.) or a mouse monoclonal antibody against ERp57 (Santa Cruz Biotechnology Inc.). Afterwards, immune complexes were collected using protein G-Sepharose and washed 3 times, and SDS sample buffer was added thereto. The samples were size-fractionated by electrophoresis.
A general note: Immunoblotting shows a protein as a band on a membrane.

T1 sequence (P40763 2-770 limits assumed): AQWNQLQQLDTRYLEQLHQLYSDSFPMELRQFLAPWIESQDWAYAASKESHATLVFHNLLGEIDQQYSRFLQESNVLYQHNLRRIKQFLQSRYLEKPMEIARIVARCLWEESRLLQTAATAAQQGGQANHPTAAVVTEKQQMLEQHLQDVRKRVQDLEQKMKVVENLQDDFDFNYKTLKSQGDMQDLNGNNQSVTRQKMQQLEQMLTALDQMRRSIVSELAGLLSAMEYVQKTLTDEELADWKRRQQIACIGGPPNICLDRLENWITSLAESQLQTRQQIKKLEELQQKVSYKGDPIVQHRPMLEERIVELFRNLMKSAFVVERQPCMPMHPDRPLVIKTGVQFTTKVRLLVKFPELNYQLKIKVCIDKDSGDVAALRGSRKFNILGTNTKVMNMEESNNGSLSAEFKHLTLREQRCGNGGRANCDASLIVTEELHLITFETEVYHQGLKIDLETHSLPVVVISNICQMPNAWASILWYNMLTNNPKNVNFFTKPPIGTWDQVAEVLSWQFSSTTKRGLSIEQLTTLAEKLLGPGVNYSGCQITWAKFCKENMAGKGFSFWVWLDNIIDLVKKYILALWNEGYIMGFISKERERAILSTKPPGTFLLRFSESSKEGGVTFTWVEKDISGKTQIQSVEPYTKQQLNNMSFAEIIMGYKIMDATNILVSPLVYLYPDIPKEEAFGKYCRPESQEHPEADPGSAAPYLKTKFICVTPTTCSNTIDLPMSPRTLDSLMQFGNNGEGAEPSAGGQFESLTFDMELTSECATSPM

B1: ERp57 (enzyme, human, UniProt P30101 25-505, looked up)
chain: SDVLELTDDNFESRISDTGSAGLMLVEFFAPWCGHCKRLAPEYEAAATRLKGIVPLAKVDCTANTNTCNKYGVSGYPTLKIFRDGEEAGAYDGPRTADGIVSHLKKQAGPASVPLRTEEEFKKFISDKDASIVGFFDDSFSEAHSEFLKAASNLRDNYRFAHTNVESLVNEYDDNGEGIILFRPSHLTNKFEDKTVAYTEQKMTSGKIKKFIQENIFGICPHMTEDNKDLIQGKDLLIAYYDVDYEKNAKGSNYWRNRVMMVAKKFLDAGHKLNFAVASRKTFSHELSDFGLESTAGEIPVVAIRTAKGEKFVMQEEFSRDGKALERFLQDYFDGNLKRYLKSEPIPESNDGPVKVVVAENFDEIVNNENKDVLIEFYAPWCGHCKNLEPKYKELGEKLSKDPNIVIAKMDATANDVPSPYEVRGFPTIYFSPANKKLNPKKYEGGRELSDFISYLQREATNPPVIQEEKPKKKKKAQEDL
notes: Endogenous protein in cell lysates (co-immunoprecipitation) or in fixed cells and tissues (PLA); also called protein disulfide isomerase family A member 3; PDIA3
For B1, the binding result is on record as “binds”.
